Test results from publication PMC5677532 (Structure (London, England : 1993), 2017).
Several values for one entry are separate records, joined by “and”; a condition that tells them apart may be missing. Equal values may be shown once.

Legend:
SEC [1] = target: the molecule itself; assay: SEC
native MS [2] = target: the molecule itself; assay: native MS
native MS [3] = target: the molecule itself; assay: native MS; remark: listed apart in the source
SEC [4] = target: the molecule itself; assay: SEC; remark: listed apart in the source
SEC [5] = target: the molecule itself; assay: SEC; remark: listed apart in the source
SEC [6] = target: the molecule itself; assay: SEC; remark: listed apart in the source

| Protein | binding result (SEC [1]) | stoichiometry N (native MS [2]) | stoichiometry N (native MS [3]) | stoichiometry N (SEC [4]) | stoichiometry N (SEC [5]) | stoichiometry N (SEC [6]) |
| --- | --- | --- | --- | --- | --- | --- |
| Bsc4 S288C, N-terminally hexahistidine-tagged (natural protein, S. cerevisiae (strain S288C), UniProt P53841 1-131, looked up) MSIVLRKSNKKNKNCITSKFYTIHIIKISTPVFRAPIAIGESPYVEWSCLQVVFRKDMVTKKTTFAQLITRLNHFLCQALKRRDSKTYILCRTAVFGAMTPFSPRKSHINNKLPMQPRKKKIVIIYVVRFH | binds |  |  |  |  |  |
| Bsc4 EC1118, C-terminally hexahistidine-tagged (natural protein, S. cerevisiae (strain EC1118), UniProt P53841 2-121, looked up) SIVLRKSNKKNKNCITSKFYTIHIIKISTPVFRAPIAIGESPYVEWSCLQVVFRKDMVTKKTTFAQLITRLNHFLCQALKRRDSKTYILCRTAVFGAMTPFSPRKSHINNKLPMQPRKKK |  | 2 and 6 | 7 and 8 | 4 | ≥ 2 |  |
| Bsc4 S288C, C-terminally hexahistidine-tagged (natural protein, S. cerevisiae (strain S288C), UniProt P53841 2-131, looked up) SIVLRKSNKKNKNCITSKFYTIHIIKISTPVFRAPIAIGESPYVEWSCLQVVFRKDMVTKKTTFAQLITRLNHFLCQALKRRDSKTYILCRTAVFGAMTPFSPRKSHINNKLPMQPRKKKIVIIYVVRFH |  |  |  |  | ≥ 2 | 2 |
